Experimental data reported in patent US20160068595A1 (DEVELOPMEN CENTER FOR BIOTECHNOLOGY, published 2016).
Where a chain is given by its changes, count along the chain named.

T1: human IL-20 (interleukin-20), recombinant (human, UniProt Q9NYY1 25-176)
T1 construct: Analyte in the BIAcore assay and stimulus (300 pM) in the BaF3 proliferation assay; also called hIL-20; human cytokine IL20
T1 sequence (looked up): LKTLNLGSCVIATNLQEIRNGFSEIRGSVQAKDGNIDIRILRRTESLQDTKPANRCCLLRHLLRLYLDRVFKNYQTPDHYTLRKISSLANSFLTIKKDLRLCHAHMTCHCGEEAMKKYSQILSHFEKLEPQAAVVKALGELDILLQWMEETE

B1: FLB35 (HH12 variant) (antibody, V domains shown)
VH: EVQLQESGGGLVQPGGSLRLSCAASGFTFSDAWMDWVRQAPGKGLEWVGEIRSKANNYATYFAESVKGRFTISRDDSKNSLYLQMNSLKTEDTGVYYCTKLDLRYWFFDVWGQGTLVTVSS
VL: DIQMTQSPLSLSVTPGQPASISCKSSQSLLDYDGKTYLNWYQQKPGQSPQLLIYLVSKLDSGVPDRFSGSGSGTDFTLKISRVEAEDVGVYYCWQSTLFPWTFGQGTKVEIKR
B2: FLB67 (HH12 variant) (antibody, V domains shown)
VH: B1 VH with D102S, R104Q
VL: B1 VL with L55Q, L98H
B3: FLB35(S) (FLB35 with Ser at CDRL1 position 27E) (antibody, V domains shown)
VH: B1 VH
VL: B1 VL with Y32S
B4: mouse anti-IL-20 monoclonal antibody 7E (antibody, V domains shown)
VH: ELKLEESGGGLVQPGGSMKLSCAASGFTFSDAWMDWVRQSPEKGLEWIAEIRSKANNYATYFAESVKGRFTISRDDSKSGVYLQMNNLRAEDTGIYFCTKLSLRYWFFDVWGAGTTVTVSS
VL: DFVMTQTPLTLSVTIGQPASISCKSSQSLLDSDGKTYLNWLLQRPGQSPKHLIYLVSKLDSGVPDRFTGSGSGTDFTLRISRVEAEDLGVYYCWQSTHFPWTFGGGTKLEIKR
notes: Mouse monoclonal antibody; The BIAcore method captures antibody on anti-human IgG; also called mAb 7E; mAb E7

Legend:
[1] = molecular target: T1, human IL-20 (interleukin-20), …; test: binding kinetics of CDR mutants; method not named
[2] = molecular target: T1, human IL-20 (interleukin-20), …; test: SPR, BIAcore T100; antibody captured on anti-human IgG CM5 chip, IL-20 as analyte, 1:1 model
Experimental: The human IL-20-binding kinetics of each purified anti-IL-20 antibody was estimated by surface plasmon resonance measurements using the BIAcore T100 biosensor system. The anti-IL-20 Ab was captured on an anti-human IgG immobilized CM5 sensor chip. The immobilized level of anti-human IgG was about 9,000-10,000 RU and the capture level of anti-IL-20 antibody was about 350-400 RU. Binding was carried out at constant flow rates of 30 μL/min of IL-20 at various dilutions in HEPES buffered saline (BIA certified) for 60 seconds. Dissociations were carried out by passing through HEPES buffer for 480 seconds. Regeneration of the surface was carried out by […] 10 mM Glycine pH 2.0/1.5 (50:50) for 40 seconds.
The IL-20 affinity of each of the anti-IL-20 antibodies were calculated from an affinity binding curve fit using the predefined model (1:1 binding) provided by Biacore T100 evaluation software 2.0.

Row | Binder | Kd [1] | koff [1] | kon [1] | Kd [2] | koff [2] | kon [2]
1 | B1 | 437 pM | 0.000431 s⁻¹ | 988000 M⁻¹ s⁻¹ |  |  | 
2 | B2 | 803 pM | 0.000713 s⁻¹ | 888000 M⁻¹ s⁻¹ |  |  | 
3 | B3 | 4030 pM | 0.00283 s⁻¹ | 703000 M⁻¹ s⁻¹ |  |  | 
4 | B4 |  |  |  | 781 pM | 0.000711 s⁻¹ | 911000 M⁻¹ s⁻¹
